Measured values published in the nanobody polyreactivity screen of Harvey et al. (2022).

Assay: yeast display, Sf9 membrane polyspecificity reagent, FACS + sequencing; frameworks hold sequencing errors
Summary of the method: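 Synthetic nanobody libraries on Saccharomyces cerevisiae BJ5465 were galactose-induced for 36–48 hours, stained 1 hour at 4 °C with 10% biotinylated, detergent-solubilized Sf9 membrane reagent and enriched on streptavidin microbeads. FACS then separated cells into low and high (top ~1%) gates by anti-HA (expression) and streptavidin (reagent binding) fluorescence. Genes were colony-PCR amplified, MiSeq 2 × 250 sequenced and CDR-length filtered. A clone's polyreactivity label is that of its gate of origin.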

| Sequence | polyreactivity (PSR sort gate) |
| --- | --- |
| QVQIVESGGGLLQAGGSLRLSCAASGGTFPVYAMVWYRQAPGKERELVAAISYSGVTTYYADSVKGRFTISRDNAKNTVYLQINSLKPDDTAVFYCNADWRRWYIFSYDYWGQGTQVTVSS | low polyreactivity |
| QVQIVESGGGLLQAGGSLRLSCAASGLTFGSYAMGWYRQAPGKERELVAAISRSGGSTYYADSVKGRFTISRDNAKNTVYLQMNSLKPEDTAVYYCNAVNPYYAPTERRVGFDYWGQGTQVTVSS | high polyreactivity |
| QVQIVESGGGLVQAAVSLPISCPASGSIFGSYAMGWYRQAPGKERELVAAISKSGGSTYYADSVKGRFTISRDYAKNTVNLQMNSLKPEDTEVYYCAARAFLYAYRAYDYWGQGTQVNVSS | high polyreactivity |
| QVQIVESGGGLVQAGCSLRLSCAASGFIFRRNAMGWYRQAPGKERELVATIRASGGRTYYADSEKGRFTISRDNAKNTVYLQMNSMKPEDTAVYYCAADTYRDVRDPYYYWGQGTQVTVSS | high polyreactivity |
| QVQIVESGGGLVQAGGSHRLSCAASGSTFASNTKGWYTQAPGKERELVATITQSGGTRYYADSVKGRFTISRDNAKYTVYFQMNSLKPEDTAVYDCATDVGYFYTVVGGYDYWGQGTQVTVSA | low polyreactivity |
| QVQIVESGGGLVQAGGSIRLSCAASGYTFVIYAMGSYRPAPGKERELVAAITTIGGRTYYADSVKGRFTISRDNAKNTVYLQMNSLKPEDTAVYYCAADIRSNRLYDGGYWGQGTQVTVSS | low polyreactivity |
| QVQIVESGGGLVQAGGSLPLSCAASGSIFDYYVMGWYRQAPGKERELVAAINWSGDGTNYADSVKGRFTISRDNAKNTVYLQMNSLKPEDTAVYYCNADWTSDGFGTRLDYWGQGTQVTVSS | low polyreactivity |
| QVQIVESGGGLVQAGGSLRFSCAASGRIFIYNAMGWYRQAPGKERELVAAISRTGGRTYYADSVKGRFTISRDISKNTVYLQMNSLKPEDTAVYYCAARNRGQYYSWGQGTQLTVSS | high polyreactivity |
| QVQIVESGGGLVQAGGSLRISCAASGFIFAYNSMGWNRQAPGKERELVAAISRSGGSTRYADSVKGRFPISRDNAKNTVFLQMNSLKPEDTAVYYCAAEYLGSYGYYEYDFWGQGTQVTVSS | high polyreactivity |
| QVQIVESGGGLVQAGGSLRISCAASGIIFYAYAMGWSRQAPGKEREFVAAINNSGGRTYYADSVKGRFTISRDNAKNTVYLQMNSLKPEDTAVYYCAVYSYYRRTYRREMDYWGQGTQVTVSS | high polyreactivity |
| QVQIVESGGGLVQAGGSLRLICAASGFTFTYNAMGWYRQAPWKERELVADIDSDGSTTYADSVKGRFTISRDNAKNTVYLQMNSLKPEDTAVYYCAADYWDYSVWRWYEYWGQGTQVTVSS | high polyreactivity |
| QVQIVESGGGLVQAGGSLRLICAASGRIFRYYVMGWYRQAPGKERELVATITSGGSTNYADSVKGRFTISRDNAKNTVYLQMNSLKPEDTAVYYCNRDRYPYYYAYNFWGQGTQVTVSS | low polyreactivity |
| QVQIVESGGGLVQAGGSLRLSCAACGRIFTWNVMGWYRQAPGKEREFVAAITYSGGRTRYADSVKGRFTISRDIAKNTVYLQMNSLKPEDTAFYYCAATSRGTDYWGQGTQVTVSS | high polyreactivity |
| QVQIVESGGGLVQAGGSLRLSCAASGFIFRYNVMGWYRQAPAKERELVAANSSSGSRTYYADSVKGRFTISRDNAKNTVYLQMNSLKPEDTAVYYCATQSWVRYGQPEFDYWGHGTQVTVSS | high polyreactivity |
| QVQIVESGGGLVQAGGSLRLSCAASGFIFTAYAMGWYRPGPGKERELDAAISSSGTRTYYADSVKGRFTISRDYAKNTVYLQMNCLKPEDTAVYYCNKLYLVWNFYSGYDYSGQGTQVTVSS | high polyreactivity |
| QVQIVESGGGLVQAGGSLRLSCAASGFTFRYYAMGWYRQAPGQERELVAAISKSGGSTYYADSVKGRFTISRDNAKNTVDLQMNSLKPEDTAVYYCAADYAHIGYDYDYWGQGTQVTVSS | high polyreactivity |
| QVQIVESGGGLVQAGGSLRLSCAASGFTFWRNAMVWYRQAPGKERELVAAINWSGGSTYYADSVKGRFTISRDNAKNTVYLQMNSLKPEDTAVYYCAADLSSRGISQDDYWGQGTQVTVSS | high polyreactivity |
| QVQIVESGGGLVQAGGSLRLSCAASGITFRFYALGWYRQATGKERELVAAISWSGGSTNYADSVKGRFTISRDNAKNTVYLQMNSLKPEDTAVYYCNVVGKYYSGGTYEYWGQGTQVTVSS | high polyreactivity |
| QVQIVESGGGLVQAGGSLRLSCAASGLIFKYYAMGWYRQAPGKERELVATITRGGGSTYYADSVKGRFTISRDNAKNTVYLQMNSLKPEDTAVYYCAADYWYVYPRYNPGDYWGQGTQVTVSS | high polyreactivity |
| QVQIVESGGGLVQAGGSLRLSCAASGLTFEWYTMGWYRQAPGKERELVAVITVSGSSTYYADSVKGRFTISRDNAKNTVYLQMNSLKPEDTAVYYCNADWSFYSYTLYDYWGQGTQVTVSS | low polyreactivity |
| QVQIVESGGGLVQAGGSLRLSCAASGNTFYVNVMGWYRQAPGKEREFVAAISTRGVSTSYADSVKGRFTISRDNAKNTVYLQMNSLKPEDTAVYYCAASFRRPQPKGTTYGYWGQGTQVTVSS | high polyreactivity |
| QVQIVESGGGLVQAGGSLRLSCAASGRIFDYYAMGWYRQAPGKERELVADITSGGSTYYADSVKGRFTISRDNAKNTVYLQMNSLKPEDTAVYYCNADGPGSYIWYYFVYTTPEYDYWGQGTQVTVSS | low polyreactivity |

| Sequence | polyreactivity (PSR sort gate) |
| --- | --- |
| QVQIVESGGGLVQAGGSLRLSCAASGRIFYRYDMGWYRQAPGKERELVAVISGGGTYYADSVKGRFTISRDNAKNTVYLQMNSLKPEDTAVYYCAADDGVSLVSPYYGGYDYWGQGTQVTVSS | low polyreactivity |
| QVQIVESGGGLVQAGGSLRLSCAASGRIIRINAMGWSRQAPGKERELVAAITRGGTTYADSVKGRFTISRDNAKNTVYLQMNSLKPEDTAVYYCNARTGRSPTGFRYWGQGTQVTVSS | high polyreactivity |
| QVQIVESGGGLVQAGGSLRLSCAASGRTFAYYAMGWYRQAPGKERELVATISGSGGTTRYADSVKGRFTISRDNAKNTVYLQMNSLKPEDTAVYYCAARYASGRRGEYWGQGTQVTVSS | high polyreactivity |
| QVQIVESGGGLVQAGGSLRLSCAASGRTFAYYSMGWYRPAPGKEREFVAAISRSGGSTYYADSVKGRFTISRDNAKNTVYLQMNSLKPEDTAVYYCNARYIWKQYRYDYWGQGTQVTVSS | high polyreactivity |
| QVQIVESGGGLVQAGGSLRLSCAASGRTFNRNAMGWYRQAPGKERELVAAISRGGGGTFYADSVKGRFTISRDNAKNTVYLQMNSLKPEDTAVYYCAKTLRGWHTIITDYDYWGQGTQVTVSS | low polyreactivity |
| QVQIVESGGGLVQAGGSLRLSCAASGRTFYSYAMGWYRQAPGKERELVAAIRWTGVRTYYADSVKGRFTISRDNAKNTVYLEINSLKPEDTAVYYCAVFRSSGKGYRGPRDYWGQGTQVTVSS | high polyreactivity |
| QVQIVESGGGLVQAGGSLRLSCAASGRTLDSNAIGWYRKATRKERVLVAAISSAGSTNYADSVKGRFTISRDNAKNTVYLQMNSLKPEDTAVYYCAADLIGSHDYSGQGTQVTVSS | low polyreactivity |
| QVQIVESGGGLVQAGGSLRLSCAASGRTTSTNAMGWYRQAPGKERELVASISWRGGSTYYADSVKGRFTISRDNAKNTVYLEMNCLKPEDTAVYYCAASWPRWWRFGYWGQGTQVTVSS | low polyreactivity |
| QVQIVESGGGLVQAGGSLRLSCAASGSIFDSNAMGWYRQAPGKERELVASITSDGDTYYADSVKGRFTISRDNAKNTVYLQMNSVKPEDTAVYYGAAYVPYSGLDYWGQGTQVTVSS | low polyreactivity |
| QVQIVESGGGLVQAGGSLRLSCAASGSIFGTNTMGWYRPAPGKEWEFVAAIRLSDSSTYYADSVKWRFTISRDNAKNTVYLQMNSLKPEDTEVYYCAVDYRAYHYYLYDYWGQGTQVTVSS | low polyreactivity |
| QVQIVESGGGLVQAGGSLRLSCAASGSIFLKYAMGWYRQAPGKERELVATFSRGGSTNYADSVKGRFTISRDNAKITVYFQMNSLKPEDTAVYNCARRRTYPPGRYYYWGQGTQVTVSS | high polyreactivity |
| QVQIVESGGGLVQAGGSLRLSCAASGSIFPAYAMGWYRQAPGKEREFVAAISGTGGITYYADSVKGRFTISRDNAKNTVYLQMNSLKPEDTAVYFCAAPVYNRDKHDYDYWGQGTQVTVSS | low polyreactivity |
| QVQIVESGGGLVQAGGSLRLSCAASGSIFRKNAMGWYRQAPGKERELVAAITRRGGSTYYADSVKARFTISRDNAKNTVYLQMNSLKPEDTAVYYCAATGGAPYKIEWGQGTQVTVSS | low polyreactivity |
| QVQIVESGGGLVQAGGSLRLSCAASGSIFTPYAMGWYRQATGKERELVADIDASGGGTYADSVKGRFTISRDNANNTVYLQMNSLKPEDTAVYYCNTDPYSSAWYNYDYWGQGTQVTVSS | low polyreactivity |
| QVQIVESGGGLVQAGGSLRLSCAASGSILYYYAMGWYRQAPGKERELVATITSGGTTNYADSVKGRFTISRDNAKNTFYLQMNRLKPEDTAVYYCATEEVYGQGNYWGQGTQVTVSS | low polyreactivity |
| QVQIVESGGGLVQAGGSLRLSCAASGSTFGKYAMGWYRQAPGKERELVAAITRRTGSTYYADSVKGRFTISRDNAKNTVYLQMNSLKPEDTAVYYCAARLPQYRYDYWGQGTQVTVSS | high polyreactivity |
| QVQIVESGGGLVQAGGSLRLSCAASGSTFRLYVMGWYRQAPGKERELVARISSRGGSTYYADSVKGRFTISRDNAQNTVYLQMTSLKPEDTAVYYCAKDVDLDTWKYDYWGQGTKVTVSS | low polyreactivity |
| QVQIVESGGGLVQAGGSLRLSCAASGSTFTWYAMGWYRQAPGKERELVAAIRYSGDSTYYADSVKGRFTISRDNAKNTVYLQMNSLKPEDTAVYYCAAQYYPQYRRRMNYWGQGTQVTVSS | high polyreactivity |
| QVQIVESGGGLVQAGGSLRLSCAASGSTFYRNAMGWYRQAPGKEREFVATISWNGGNTYYADSVKGRFTISRDNAKNTVYLQMNSVKPEDTAVYYCDARVKYRTSGGTVVSYDYWGQGTQVTVSS | high polyreactivity |
| QVQIVESGGGLVQAGGSLRLSCADSGIIFYYNAMGWYRQAPGKERELVAAIDDRGDSTYYADSVKGRFTISRDNAKNTVYLQMNSMKPEDTAVYYCAARDRYLYFDAMDYWGQGTLVTVSS | low polyreactivity |
| QVQIVESGGGLVQAGGSLRLSCAPSGRIITRKTMGWYRQAPGKEREFVAAISQSGGRTYYADSVKGRFTISRDNAKNTVYLQMNSLKPEDTAVYYCNAQFARSSGFNYWGQGTQVTVSS | high polyreactivity |
